B1: TPR t1 (parent)
chain: GACCAAUCUGCCCUCAGAGCUCGAGAACAUCUUCGGAUGCAGAGGAGGCAGGCUUCGGUGGCGCGAUAGCGCCAACGUCCUCAACCUCCAAUGCAUCCCACCACAUGAUGAUGCCUGAAGAGCCUUGGUUUUUUG

Variants of: B1
Assay: polymerase ribozyme fitness, log enrichment relative to wild type (log ratio); higher = more active; in vitro selection for triplet polymerase activity
Method in brief: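 PCR was used to build mutant libraries for each subunit of a heterodimeric triplet polymerase ribozyme, which were then transcribed. A single in vitro selection round, in triplicate, used a frozen incubation at −7 °C and recovered extended constructs by gel excision, streptavidin beads and RT-PCR. Fitness is the logarithm of genotype enrichment relative to wild-type enrichment, averaged over replicates with inverse-variance weights. The logarithm is base 2, and after Illumina sequencing only genotypes with ≥10 input reads and ≥1 read per output were kept.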
With GACCAAUCUGCCCUUAGAGCUCGAGAACAUCUUCGGAUGCAGAGGAGGCAGGCUUCGGUGGCGCGAUAGCGCCAACGGCCUCAACCUCCAAUGCAUCCCACCACAUGAUGAUGUCUGAAGAGCCUUGGUUUUUUG [C15U U78G C114U] the “polymerase ribozyme fitness (log ratio)” value was -4.55.
For GACCAAUCUGCCCUUAGAGCACGAGAACAUCUUCGGAUGCAGAGGAGGCAGGCUUCGGUGGCUCGAUAGCGCCAACGUCCUCAACCUCCAAUGCAUCCCACCACAUGAUGAUGCCUGAAGAGCCUUGGUUUUUUG [C15U U21A G63U], the “polymerase ribozyme fitness (log ratio)” value was -2.12.
With GACCAAUCUGCCCUUAGAGCUCGAGAACAUCUUCGGAUGCAGAGGAGGCAGGCUUCGGUGGCGCGAUAGCGCCAACGUCCUCAACCUCCAAUGCAUCCCACCACAUGAUGAUGCCUGAAGAGCCUUUGUUUUUUG [C15U G127U] the “polymerase ribozyme fitness (log ratio)” value was -2.39.
In the case of GACCAAUCUGCCCUCCGAGCUCGAGAACAUCUUCGGAUGCAGAGGAGGCAGGCUUCGGUGGCGCGAUAGCGCCAACGUCCUCAACCUCCCAUGCAUCCCACCACAUGAUGAUGCCUGAAGAGCCUUGGUUUUUUG [A16C A90C], the “polymerase ribozyme fitness (log ratio)” value is reported as -4.52.
With GACCAAUCUGCCCUUAGAGCUCGAGAACAUCUUCGGAAGCAGAGGAGGCAGGCUUCGGUUGCGCGAUAGCGCCAACGUCCUCGACCUCCAAUGCAUCCCACCACAUGAUGAUGCCUGAAGAGCCUUGGUUUUUUG [C15U U38A G60U A83G] the “polymerase ribozyme fitness (log ratio)” value was -2.98.
In the case of GACCAAUCUGCCCUUAGAGCACGAGAACAUCUUCGGAUGCAGAGGAGGCAGGCUUCGGUGGCGCGAUAGCGCCAACGUCCUCAACCUCCAAUGCAUCCCCCCACAUGACGAUGCCUUAAGAGCCUUGGUAUUUUG [C15U U21A A100C U109C G117U U130A], the “polymerase ribozyme fitness (log ratio)” value is reported as -6.66.
For GACCAAUCUGCCCUUAGAGCUCGAGAACAGCUUCGGAUGCAGAGGAGGCAGGGUUCGGUGGCGCGAUAGCCCCAACGGCCUCAACCUCCAAUGCAUCCCACCACAAGAUGAUGCCUGAAGAGCCUUGGUUUUUUG [C15U U30G C53G G71C U78G U106A], the “polymerase ribozyme fitness (log ratio)” value was -4.3.
For GACCAAUCUGCCCUUAGAGCUCGAGAACAUCUUCGGAUGCAGAGGAGGCAGGCUUCGGUGGCGCGAUAGCGCCAACGACCUCAACGUCCAAUGCAUCCCACCACAUGAUGAUGCCUGAAGAGCCUUGGUUUUUUG [C15U U78A C86G], the “polymerase ribozyme fitness (log ratio)” value was -3.29.
With GACCAAUCUGCCCUUAGAGCUCGAGAACAUCUUCGGAUGCAGAGGAGGCAGGCUUCGGUGGCGCGAUAGCGCCAACGUCCUCAACCUCCAAUGCAUCCCACCACAUGAUGAUGCCUGAACAGCCUUGGUUUUUUG [C15U G120C] the “polymerase ribozyme fitness (log ratio)” value was -0.175.
With GACCAAUCUGCCCUCCGAGCUCGAGAACAUCUUCGGAUGCAGAGGAGGCAGGCUUCGGUGGCGCGAUAGUGCCAACGUCCUCAACCUCCAAUGCAUCCCACCACAUGAUGAUGCCUGAAGAGCCUUGGUUUUUUG [A16C C70U] the “polymerase ribozyme fitness (log ratio)” value was -3.17.
With GACCAAUCUGCCCUUAGAGCUCGAGAACAUCUUCGGAUGCAGAGGAGGCAGGCUUCGGUGGCGCGAUAGCGCCAACGUCCUCAACCUCCAAUGCAUCCCACCACAUGAUGAUGCCUUAAGAGCCUUGGUUUUUUG [C15U G117U] the “polymerase ribozyme fitness (log ratio)” value was -3.29.
In the case of GACCAAUCUGCCCUUAGAGCUCGAGAACAUCUUCGGAUGCAGAGGAGGCAGGCAUCGGAGGCGCGAUAGCGCCAACGUCAUGAACCUCCAAUGCAUCCCACCACAUGAUGAUGCCUGAAGAGUCUUGGUUUUUUG [C15U U54A U59A C80A C82G C123U], the “polymerase ribozyme fitness (log ratio)” value is reported as -3.3.
In the case of GACCAAUCUGCCCUUAGAGCUCGAGAACAUCUUCGGAUGCAGAGGAGGCAGGCUUCGGUGGCGCGAUAGCGCCAACGUCCUCAACCUCCAAUGCAUCCCACCACAUGAUGAUGCCUUAAAAGCCUUGGUUUUUUG [C15U G117U G120A], the “polymerase ribozyme fitness (log ratio)” value is reported as -1.56.
With GACCAAUCUGCCCUUAGAGCCCGAGAACAUCUUCGGAUGCAGAGGAGGGAGGCUUCGGUGGAGCGAUAGCGCCAACGUCCUCAACCUCCAAUGCAUCCCACCACAUGAUGAUGCCUAAAGAGCCUUGGUUUUUUG [C15U U21C C49G C62A G117A] the “polymerase ribozyme fitness (log ratio)” value was -1.27.
In the case of GACCAAUCUGCCCUUAGAGCCCGAGAACAUCUUCGGAUGCAGAGGAGGCAGGCUUCGGUGGCGCGAUAGCGCCAACGUCCUCAACCUCCAAUGCAUCCCACCACAUGAUAAUGCCUGAAGAGCCUUGGUGUUUUG [C15U U21C G110A U130G], the “polymerase ribozyme fitness (log ratio)” value is reported as -4.32.
For GACCAAUCUGCCCUUAGAGCUCGAGAACAUCUUCGGAUGCAGAGGAGGCAGGCUUCGGGGGCGCGAUAGUGCCAACGUCCUCAACCUCCAAUGCAUCCCACCAAAUGAUGAUGCCUGAAGAGCCUUGGUUUUUUG [C15U U59G C70U C104A], the “polymerase ribozyme fitness (log ratio)” value was -4.32.
With GACCAAUCUGCCCUCCGAGCUCGAGAACAUCUUCGGAUGCAGAGGAGGCAGGCUUCGGUGGCGCGAUAGCGCUAACGUCCUCAACCUCCAAUGCAUCCCACCACAUGAUGAUGCGUGAAGAGCCUUGGUUUUUUG [A16C C73U C115G] the “polymerase ribozyme fitness (log ratio)” value was -3.06.
For GACCAAUCUGCCCUUAGAGCUCGAGAACAUCUUCGGAUGCAGAGGAGGCAGGCUUCGGGGGCGCGAUAGCGCCAACGUCCUCAACCUCCAAUGCACCCCACAACAUGAUGAUGCCUGAACAGCCUUGGUUUUAUG [C15U U59G U96C C102A G120C U133A], the “polymerase ribozyme fitness (log ratio)” value was -2.28.
With GACCAAUCUGCCCUCCGAGCUCGAGAACAUCUUCGGAUGCAGAGGAGGCAGGCUUCGGUGGCGCGAUAGCGCGAACGUCCUCAACCUCCAAUGCAUCCCACCACAUGAUGAUGCCCGAAGAGCCUUGGUUUUUUU [A16C C73G U116C G135U] the “polymerase ribozyme fitness (log ratio)” value was -3.68.
In the case of GACCAAUCUGCCCUUAGAGCUCGAGAACAUCUUCGGAUGCAGAGGAGGCAGGCAUCGGUGGCGCGAUAGCGCCAACGUCCUCAACCUCCAAUGCAUCCCACCACUUGAUGACGCCUGAAGAGCCUUGGUUUUUUG [C15U U54A A105U U112C], the “polymerase ribozyme fitness (log ratio)” value is reported as -2.79.
With GACCAAUCUGCCCUUAGAGCUCGAGAACAUCUUCGGAUGCAGAGGAGGCAGGCUUCGGUGGCGCGAUAGCGCCAACGUCCUCAACCUCCAAUGCAUCCCACCACAAGAUGAUGCCUGAAGAGCCUUGGUUUUUUG [C15U U106A] the “polymerase ribozyme fitness (log ratio)” value was -1.69.
